{
  "source": "the supplement of paper PMC6379048",
  "test_in_all_cases": "Kd (EC50 corrected by depletion factor)",
  "key": {"AASS": {"target": "T1, AASS (UniProt Q9UDR5)", "T1 sequence": "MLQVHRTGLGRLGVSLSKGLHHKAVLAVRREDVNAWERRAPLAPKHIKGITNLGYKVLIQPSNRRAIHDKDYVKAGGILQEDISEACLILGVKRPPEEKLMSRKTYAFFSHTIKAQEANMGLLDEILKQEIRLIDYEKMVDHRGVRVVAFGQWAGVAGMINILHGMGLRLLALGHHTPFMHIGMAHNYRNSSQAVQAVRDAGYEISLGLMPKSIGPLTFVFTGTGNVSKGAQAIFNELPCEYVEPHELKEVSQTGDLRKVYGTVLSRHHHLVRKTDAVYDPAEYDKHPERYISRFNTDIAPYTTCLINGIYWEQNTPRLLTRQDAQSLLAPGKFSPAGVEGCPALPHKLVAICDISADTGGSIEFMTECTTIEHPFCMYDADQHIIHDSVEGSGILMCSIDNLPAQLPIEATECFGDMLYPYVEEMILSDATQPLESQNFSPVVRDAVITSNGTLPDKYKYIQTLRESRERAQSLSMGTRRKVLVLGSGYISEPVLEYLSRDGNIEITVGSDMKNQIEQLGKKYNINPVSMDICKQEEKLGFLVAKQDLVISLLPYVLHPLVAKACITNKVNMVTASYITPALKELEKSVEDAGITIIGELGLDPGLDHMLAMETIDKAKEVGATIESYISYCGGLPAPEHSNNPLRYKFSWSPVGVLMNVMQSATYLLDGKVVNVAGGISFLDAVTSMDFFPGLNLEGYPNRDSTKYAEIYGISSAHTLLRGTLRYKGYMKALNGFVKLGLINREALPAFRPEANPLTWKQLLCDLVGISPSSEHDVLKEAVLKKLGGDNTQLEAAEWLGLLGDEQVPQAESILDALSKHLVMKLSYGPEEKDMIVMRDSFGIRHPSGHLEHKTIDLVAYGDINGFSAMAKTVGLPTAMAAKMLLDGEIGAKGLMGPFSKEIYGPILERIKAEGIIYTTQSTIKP", "procedure,_shortened": "(§1)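 Over three biological replicates and two independent experiments, proteins captured on NHS-Sepharose beads carrying 5′-amino-C6 RNA oligos were quantified by label-free LC-MS/MS and normalised to the control. Capture lasted 30 min at 4°C and followed a 1 h pre-incubation at 4°C of HEK293-FT lysate (2.5 mg protein/well) with the same oligos in free form (0 nM to 30 μM). EC50 was taken from a four-parameter log-logistic fit, and Kd was EC50 corrected by a protein-dependent depletion factor.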"}, "RBM47": {"target": "T2, RBM47 (UniProt A0AV96)", "T2 sequence": "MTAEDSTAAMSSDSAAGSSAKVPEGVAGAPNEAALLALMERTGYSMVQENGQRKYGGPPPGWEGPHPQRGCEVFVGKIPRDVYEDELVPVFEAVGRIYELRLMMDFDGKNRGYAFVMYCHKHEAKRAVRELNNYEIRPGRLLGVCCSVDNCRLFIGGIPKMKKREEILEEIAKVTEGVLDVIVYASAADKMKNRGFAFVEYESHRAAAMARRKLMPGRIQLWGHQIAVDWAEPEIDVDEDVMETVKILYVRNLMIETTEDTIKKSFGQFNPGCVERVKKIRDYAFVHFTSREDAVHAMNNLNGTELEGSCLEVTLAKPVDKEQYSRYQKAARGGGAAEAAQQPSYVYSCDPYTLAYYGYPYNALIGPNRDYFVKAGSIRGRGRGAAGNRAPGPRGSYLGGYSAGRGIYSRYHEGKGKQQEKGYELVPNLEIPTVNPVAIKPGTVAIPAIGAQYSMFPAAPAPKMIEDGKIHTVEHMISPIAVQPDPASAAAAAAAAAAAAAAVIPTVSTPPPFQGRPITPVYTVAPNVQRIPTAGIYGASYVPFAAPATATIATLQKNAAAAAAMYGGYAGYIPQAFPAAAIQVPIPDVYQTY", "procedure,_shortened": "as §1"}, "ERAL1": {"target": "T3, ERAL1 (UniProt O75616)", "T3 sequence": "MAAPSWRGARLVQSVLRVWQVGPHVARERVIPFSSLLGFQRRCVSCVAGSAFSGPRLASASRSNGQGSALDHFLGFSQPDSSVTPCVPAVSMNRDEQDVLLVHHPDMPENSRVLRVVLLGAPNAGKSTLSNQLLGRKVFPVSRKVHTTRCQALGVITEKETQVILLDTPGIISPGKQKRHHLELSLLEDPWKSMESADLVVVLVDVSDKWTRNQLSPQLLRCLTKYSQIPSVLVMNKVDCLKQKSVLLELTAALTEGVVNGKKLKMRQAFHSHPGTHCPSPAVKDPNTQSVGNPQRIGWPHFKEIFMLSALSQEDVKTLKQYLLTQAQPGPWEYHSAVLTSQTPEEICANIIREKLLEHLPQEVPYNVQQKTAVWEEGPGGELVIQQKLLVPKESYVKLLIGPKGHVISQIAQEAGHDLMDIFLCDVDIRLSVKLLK", "procedure,_shortened": "as §1"}, "HNRNPM": {"target": "T4, HNRNPM (UniProt P52272)", "T4 sequence": "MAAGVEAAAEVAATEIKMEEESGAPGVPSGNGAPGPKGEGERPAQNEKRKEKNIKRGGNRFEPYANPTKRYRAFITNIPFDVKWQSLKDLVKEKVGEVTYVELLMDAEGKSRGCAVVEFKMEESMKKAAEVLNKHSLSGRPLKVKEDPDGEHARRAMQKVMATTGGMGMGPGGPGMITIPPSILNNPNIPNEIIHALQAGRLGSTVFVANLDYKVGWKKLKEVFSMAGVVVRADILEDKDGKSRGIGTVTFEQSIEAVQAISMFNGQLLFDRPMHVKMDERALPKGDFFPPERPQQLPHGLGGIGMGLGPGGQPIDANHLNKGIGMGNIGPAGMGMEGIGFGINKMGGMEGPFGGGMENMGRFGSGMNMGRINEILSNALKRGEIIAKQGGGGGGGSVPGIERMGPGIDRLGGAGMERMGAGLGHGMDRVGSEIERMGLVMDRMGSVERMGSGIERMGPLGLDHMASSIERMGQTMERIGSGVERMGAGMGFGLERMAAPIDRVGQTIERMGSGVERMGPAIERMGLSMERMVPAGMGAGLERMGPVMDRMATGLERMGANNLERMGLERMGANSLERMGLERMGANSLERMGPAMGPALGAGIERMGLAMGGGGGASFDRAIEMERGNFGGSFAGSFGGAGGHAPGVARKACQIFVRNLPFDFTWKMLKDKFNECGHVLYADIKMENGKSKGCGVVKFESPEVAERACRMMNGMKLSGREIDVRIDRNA", "procedure,_shortened": "as §1"}},
  "data": [
    {"sequence": "AAUAAA", "values": [
      {"measurement": "Kd", "setting": "AASS", "value": 1220, "unit": "nM"},
      {"measurement": "Kd", "setting": "RBM47", "value": 417, "unit": "nM"}
    ]},
    {"sequence": "UAUUUAU", "values": [
      {"measurement": "Kd", "setting": "ERAL1", "value": 25.5, "unit": "nM"},
      {"measurement": "Kd", "setting": "HNRNPM", "value": 4410, "unit": "nM"}
    ]}
  ]
}
